Here are results for 41 sequences from the nanobody polyreactivity screen of Harvey et al. (2022).

The series is described as follows: yeast display, Sf9 membrane polyspecificity reagent, FACS + sequencing; frameworks hold sequencing errors. In short, it runs like this: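 Galactose-induced (36–48 hours) yeast carrying a synthetic nanobody display library were exposed to 10% biotinylated, detergent-solubilized Sf9 membrane reagent at 4 °C for 1 hour. FACS followed streptavidin microbead enrichment, using low and high (top ~1%) gates for expression (anti-HA) and reagent binding (streptavidin). Colony PCR, MiSeq 2 × 250 sequencing and CDR-length filtering followed. Labels for polyreactivity reflect the gate of origin.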
Turning to “QVQLVESGGGLVQAAGSLRLSCAASGRTFHWYVMGWYRQAPGKESELDAAITRRGGSTYYADSVKGRFTISRDNAKNTVYLQLNSLKPEDTAVYYCAAVGNRRYYFGYDYWGQGTQVTVSS”, the “polyreactivity (PSR sort gate)” value was “high polyreactivity”.
The value for “QVQLVESGGGLVQAAGSLRLSCAASGRTSVRYAMGWNRQAHGKERELVAAISWSGGSTYYADSVKGRFTISRDNAKNTVYLQMNSLKPEDTAVYYCNAQHALGYYYWGQGTQVTVSS” was “low polyreactivity”; that for “QVQLVESGGGLVQAAGSLRLSCAASGTTFNRFFMGWYREAPGTERELVAANGGRTYYADSVKGRFTISRDNAKKSVYFQRNSLKPEDTAVYYCNARSYKHPYYRFDYWGQGTEVTVSS” was “high polyreactivity”.
Take “QVQLVESGGGLVQAAGSLRVSCAASGSIFYGYAMGGYRKAPGKERELVAAITTVGSTYADSVKGRFTISRDNAKNTVYLQMNSLKPEDTAVYYCNARDYERTRRYLIVYSRYGYWGHGTQVTVSS”: the “polyreactivity (PSR sort gate)” value is recorded as “low polyreactivity”.
As for “QVQLVESGGGLVQAGASLRLSCAASGFTFGINAMGWYRQAPGKERELVATISTRGGTTHYADSVKGRFTISRDNAKNTVYLQMNRLKPEDTAVYYCAVERGTFRSGFAYEYYYWGQGTQVTVSS”, the entry is “low polyreactivity”; as for “QVQLVESGGGLVQAGASLRLSCAASGRIFARYAMGWYRQAPGKERELVASITRSGGSTYYADSVKGRYTISRDNAKNTVYLQMNSLKPEDTAVYYCAARYGRVRDVIPYDYWGQGTQVTVSS”, “high polyreactivity”.
On to “QVQLVESGGGLVQAGASLRLSCAASGRIFPTYAMGWYRQAPGKEMEFVAAISRSGGRTYYADSVKGRFTISRDHAKNTVYLQMNSLKPEDTAVYYCNAEGDPYVDFPSRSTGYDYWGQGTQVTVSS”, for which the “polyreactivity (PSR sort gate)” value is “high polyreactivity”.
Turning to “QVQLVESGGGLVQAGASLRLSCAASGRTFETNAMGWYSQAPGKEREFVASINWSGGSTYYSDSVKGRFTISRDNAKNTVYLQMNSLKPEDTAVYYCAADHSYWDWWSYYYWGQGTQVTVSS”, the “polyreactivity (PSR sort gate)” value is given as “low polyreactivity”.
As for “QVQLVESGGGLVQAGASLRLSCAASGRTFGGYAMGWYRQAAGKERELVAAISYSGGSTYYADSVKGRFTISRDYAKNTVYLQMNSLKPEDTAVYYCAADGFDAYYWGQGTQVTVSS”, the entry is “low polyreactivity”; as for “QVQLVESGGGLVQAGASLRLSCAASGRTYRWYTMGWYRPAPGKERELVAAITSRGGSTYADSVKGRFTISRDNAKNTVYLQMNSLKPEDTAVYYCNAARTYQYDYWGQGTQVTVSS”, “high polyreactivity”.
On to “QVQLVESGGGLVQAGASLRLSCAASGSIFSGYTMGWYRQAPGKERELVAGISYRGGSTYYADSVKGRFTISRDNAKNTVYLQMNSLKPEDTAVYYCAALYYRRGSLNYEYWGQGTQVTVSS”, for which the “polyreactivity (PSR sort gate)” value was “high polyreactivity”.
Consider “QVQLVESGGGLVQAGASLRLSCAASGSIFSSYARGWYRPAPGKERELVAVITNGGSTYYADSVKGRFTISRDYAKNTVYLQMNSLKPEDTAVYYCNARWTKGRKYGYWGQGTQVTVSS”, for which the “polyreactivity (PSR sort gate)” value is “low polyreactivity”.
The value for “QVQLVESGGGLVQAGASLRLSCAASGSIFTRNTMGWYRQAPGKERELVARISGGRTNYADSVKGRFTISRDNAKNTVYLQMYSLKPVDTAVYYCAARGLYTPTKRSGDPYYYWGQGSQVTVSS” was “high polyreactivity”.
The value for “QVQLVESGGGLVQAGASLRLSCAASGSIFYYDMGWDRQAPGKERELVAAITWSGGSTYYADSVKGRFTISRDNAKNTVYLQMNSLKPEDTAVYYCAAIFGYGSTWWRWGKDDYWGQGTQVTVSS” was “high polyreactivity”; that for “QVQLVESGGGLVQAGASLRLSCAASGSTFYYYAMGWYRQAPGKERELVAAITYRGGSTYYADSVKGRFTISRDNAKNTDFLQMNSLKPEDPAVYYCAADIVTGFISGPGYVYWGQGTQVTVSS” was “high polyreactivity”; that for “QVQLVESGGGLVQAGASLRLSCDASGLTFGYYAMGWYRQAPGKERELVAAINRSGNTNYADSVKGRFTISRDNAKNTVYLQMNSLKPEDTAVYYCAKRIWSILSPYKSSYGYDYWGQGTQVTVSS” was “low polyreactivity”.
On to “QVQLVESGGGLVQAGCRLRLSCAASGLIFGYYHMGWYRQAPGKERELVAAITTGDSTYYADSVKGRFTISRDNAKNTVYLQMNSLKPEDTAVYYCAAYPVWYYEYDYWGQGTQVTVSS”, for which the “polyreactivity (PSR sort gate)” value is recorded as “low polyreactivity”.
“QVQLVESGGGLVQAGCSLLLSCDATGNIFRYYFMGWYRQAPGKEREFVAAITTSCGSTYYADSVKGRFTISRDNAKNTVYLQMNSLKQEDTAVYYCAKDYWVPGWAEYDYWGQGTQVTVSS”: the “polyreactivity (PSR sort gate)” value is “low polyreactivity”.
As for “QVQLVESGGGLVQAGCSLRISCAASGLIFQYYAMGWYRQAPGKERELVAAISGFGVRTYYADSVKGRFTISRDNAKNTVYLQMNSLKPEDTAVYYCNTLRQDIIRGDYWGQGTQVTVSS”, the “polyreactivity (PSR sort gate)” value was “high polyreactivity”.
As for “QVQLVESGGGLVQAGCSLRISSAASGRIFAVKAMGWYRQAPGKDRELVAAITNVGSTNYADSVKGRFTISRDNAKNTVYLQMNSLKPEDTAVYYCNADLAQEDWKMDYWGQGTQVTVSS”, the entry is “low polyreactivity”; as for “QVQLVESGGGLVQAGCSLRLICAASALTFYHKAMGWYRPAPVKERELVAPISSSGDSTYSADSVKGRFTISHDNGKNTVYLQMNSLKPEYTAVYYCAADLGYYNARWYEYWGQGTQVTVSS”, “high polyreactivity”; as for “QVQLVESGGGLVQAGCSLRLRCAASGYTFYDYAMGWYRPAPGKERELVAASSSSGGSTYYADSVKGRFTISRDNAKNTGYLQMNSVKPEDTALYYCAVRARRWRYNYWGQGTQVTVSS”, “high polyreactivity”.
With “QVQLVESGGGLVQAGCSLRLSCAASGFIFTSYAMGWYRQAPGKERDLVAAITRSGGRTYYADSVKGRFTISLDNAKITVYLQMNSLKPEDTAVYYCAAVTFYQSPARGYWGQGTQVTVSS”, the “polyreactivity (PSR sort gate)” value was “high polyreactivity”.
As for “QVQLVESGGGLVQAGCSLRLSCAASGFTFAGNAMGWYRQAPGKERELVAAISRRGGSTYYADSVKGRFTISRDNAKNTVYLKMNSLKPEDNAVYYCAAVYRYDYDYWGQGNQVTVSS”, the entry is “high polyreactivity”; as for “QVQLVESGGGLVQAGCSLRLSCAASGFTYARYTMGWYRQAPGKERELVAAISSRGSSTYYADSVKGRFTISRDNAKNSVYLQMNCLKPEDTAVYYCAAPPRYGYDYWGQGTQVTVSS”, “high polyreactivity”.
Regarding “QVQLVESGGGLVQAGCSLRLSCAASGIIFGYYAMGWYRQAPVKERELVAAISSRGSRTYYSDSLKGRFTISRDNAKNTVYLQMNSLIPEDTAVYYCAVRGKFDYWGQGTQVTVSS”, the “polyreactivity (PSR sort gate)” value is on record as “high polyreactivity”.
As for “QVQLVESGGGLVQAGCSLRLSCAASGITVYDYDMGWYRQAPGKERELVAAITWNGGSTYYADSVKGRFTISRDNAKNTVYLQMNSLKPEDTAVYYCAAESYYIYDYWGQGTQVTVSS”, the entry is “high polyreactivity”.
Regarding “QVQLVESGGGLVQAGCSLRLSCAASGLIFLPYAMGWYIQAPGKERELVAAINFSTGSTHYADSVKGRFTISRDNAKNTVFLQMNSLKPEDTAVYYCAVYTSQIYGYWGQGTQVNVSS”, the “polyreactivity (PSR sort gate)” value was “high polyreactivity”.
The value for “QVQLVESGGGLVQAGCSLRLSCAASGLTFAKYAMGWYRHAPGKEWELVAAISRSGGSTYYADSVKGRFTISRDNAKNTVYLQMNSLKPEDTAVYYCAKSSGTLWITKYDYWGQGTQVTVSS” was “low polyreactivity”; that for “QVQLVESGGGLVQAGCSLRLSCAASGLTFHWYTMGWYRQAPGKERELVATINSGGSTDYADSVKGRFTISRDNAKNTVYLQMNSLKPEDTAVYYCNAEYGYSGVGDDYWGQGTQVTVSS” was “low polyreactivity”.
On to “QVQLVESGGGLVQAGCSLRLSCAASGRIFRLNAMGWYRQAPGKERELVAAISSSGGSTYYADSVKGRFTISRDNAKNTVYLQMNSLKPEDTAVSYCAKYPVGGYDYWGQGPQVTVSS”, for which the “polyreactivity (PSR sort gate)” value is given as “low polyreactivity”.
For the sequence “QVQLVESGGGLVQAGCSLRLSCAASGRIFYTYAMGWYRQAPAKEREFVAGIRWSGSSTYYADSVMGRFRISRDNAKYTVYFQMLSMKPEDTAVYYCAKRYVWGDKRYWQGYDYWGQGNQVTVSS”, the “polyreactivity (PSR sort gate)” value is recorded as “high polyreactivity”.
As for “QVQLVESGGGLVQAGCSLRLSCAASGRTFPYYAMGWYRQAPGKERELVARIRSDGSTNYADSVKGRFTISRDNAKNTVYLQMNSLKPEDTAVYYCTADVGFEPPWYDWSWDNEYWGQGTQVSVSS”, the entry is “low polyreactivity”; as for “QVQLVESGGGLVQAGCSLRLSCAASGRTFVHYTMGWYRQAPGKERELVATISTSGGSTSYADSVKGRFTISRDNAKNTVYLQMNSLKPEDTAVYYCAARWYFPDRVKYDYWGQGTQVTVSS”, “low polyreactivity”.
“QVQLVESGGGLVQAGCSLRLSCAASGRTFVWYEMGWYRQATGKERELVAAINKRGTSTYYADSVKGRFTISRDNAKNTVYLQMNSLNPEVTAVYYCAVEYIYWFHSRSSYIYDYWGQGTQVTVSS”: the “polyreactivity (PSR sort gate)” value is listed as “low polyreactivity”.
In the case of “QVQLVESGGGLVQAGCSLRLSCAASGRTIGYYAMGLYRPAPGKERELVAAISTRGGRTSYADSVKGRFTISRDNAKYTVYFQMNSLKPEDTAVYYCAADGVRVHKDPTGHYYWGQGTQVTVSS”, the “polyreactivity (PSR sort gate)” value is given as “high polyreactivity”.
“QVQLVESGGGLVQAGCSLRLSCAASGSIFAAYPMGWYRQAPGKERELVAAISRSCGSTYYADSVKGRFTISRDNAKNTVYLQMNSLKPEDTAVYYCAADTYGYRHDNYDYWGQGTQVTVSS”: the “polyreactivity (PSR sort gate)” value is recorded as “low polyreactivity”.
As for “QVQLVESGGGLVQAGCSLRLSCAASGSIFPCNAMGWYRQAPGKERELVAAISRGCSTNYADSVKGRFTISRDNAKNTDYLQMNSLKPEDTSVFDCAVYYYSYHGGRGYDYWGQGTQVTVSS”, the entry is “high polyreactivity”.
On to “QVQLVESGGGLVQAGCSLRLSCAASGSIFRVYAMGWYRQAPGKEREFVAAITRSGGSTYYADSVKGRFTISRDNAKNTVYLQMNSLKPEDTAVYYCNAVYYSWAQSARFDYWGQGTQVTVSS”, for which the “polyreactivity (PSR sort gate)” value is “low polyreactivity”.
As for “QVQLVESGGGLVQAGCSLRLSCAASGSIFSAYSMGWYRPAPGKEREFVAAITRRGGNTYYADSVKGRFTISRDNAKNTVYLQMKSLKPEDTAVYYCAASYNGLWHGDYDYWGQGTQVTVSS”, the entry is “low polyreactivity”; as for “QVQLVESGGGLVQAGCSLRLSCAASGSIFYSNAMGWYRQAPGKERELVAAITRRGGSTYYADSVKGRFTISRDNAKNTVYLQMNSLKPEDTAVYYCYADGSARTPYYYRWYRYGYWGQGTQVSVSS”, “high polyreactivity”.
